Experimental data published in patent publication US5559213A, “Polyethylene-protein conjugates” (Hoffmann-La Roche Inc., priority 1995, dated 1996).

Tests used:
[1] = tested on: rIL-1alpha induction of interleukin-6; assay: Inhibition of rIL-1alpha induction of interleukin-6 in mice (pharmacodynamics); type: in vivo
Method: The pharmacodynamics of IL-1ra protein was evaluated in vivo by the ability of the IL-1ra to inhibit rIL-1alpha induction of interleukin-6. Serum from mice treated with rIL-1alpha contain high levels of IL-6, [McIntosh et al., Immunol. 143: 162, (1989)]. The administration of unmodified IL-1ra together with IL-1alpha (0 hr time point) inhibits the induction of IL-6. This test system was used to compare the pharmacodynamic properties of unmodified and PEG IL-1ra. […] Three hours later, serum samples were collected. IL-6 levels (units) were determined using a modification of an IL-6 assay that has been previously described [Van Snick et al., Proc. Natl. Acad. Sci. USA 83:9679, (1986)]. In the IL.-6 assay, B9 hybridoma cells were treated with two fold serial dilutions of the test sera in 96-well microtiter plates. Following a 3 day incubation at 37° C. in a humidified atmosphere comprised of 5% CO2 and 95% air, the wells were pulsed with 0.5 uCi of tritiated thymidine and incubated for an additional 18 hr. The cells were then harvested onto glass fiber filters and the level of tritiated thymidine incorporation was determined by scintillation counting. IL-6 activity is expressed as U/ml. IL-6 units are defined as the inverse of the serum dilution which produces half-maximal tritiated thymidine incorporation compared to a reference standard.

[2] = Pharmacokinetic profile: serum IL-1ra levels in mice after subcutaneous administration; type: in vivo; settings: for Serum Concentration of IL-1ra: Table D2 (pegylated as in Example 6a), 100 ug s.c.; for Serum Level of IL-1ra: Table D4 (reagent of Example 11a); for Serum IL-1ra: Table D5 (reagent of Example 18a)
Method: To determine the pharmacokinetic profile of PEG-IL-1ra species, C57BF/6 mice were administered 100 ug of […] or pegylated IL-1ra species subcutaneously. Serum samples were collected after 1, 2, 3, 4 and 6 hours from mice that received unmodified IL-1ra and after 2, 4, 8, 10, and 24 hours from mice that received PEG-IL-1ra. The serum levels were determined in the EL4 membrane binding assay described in Example 6.

[3] = target: T1, IL-1 receptor on EL-4 membranes (Mus musculus, UniProt P13504); assay: IL-1 radioreceptor competition binding assay
T1 construct: incubated at varying concentrations with EL-4 membranes; endogenous in cells; host or cells: EL-4 cell membranes
T1 sequence (P13504 20-576): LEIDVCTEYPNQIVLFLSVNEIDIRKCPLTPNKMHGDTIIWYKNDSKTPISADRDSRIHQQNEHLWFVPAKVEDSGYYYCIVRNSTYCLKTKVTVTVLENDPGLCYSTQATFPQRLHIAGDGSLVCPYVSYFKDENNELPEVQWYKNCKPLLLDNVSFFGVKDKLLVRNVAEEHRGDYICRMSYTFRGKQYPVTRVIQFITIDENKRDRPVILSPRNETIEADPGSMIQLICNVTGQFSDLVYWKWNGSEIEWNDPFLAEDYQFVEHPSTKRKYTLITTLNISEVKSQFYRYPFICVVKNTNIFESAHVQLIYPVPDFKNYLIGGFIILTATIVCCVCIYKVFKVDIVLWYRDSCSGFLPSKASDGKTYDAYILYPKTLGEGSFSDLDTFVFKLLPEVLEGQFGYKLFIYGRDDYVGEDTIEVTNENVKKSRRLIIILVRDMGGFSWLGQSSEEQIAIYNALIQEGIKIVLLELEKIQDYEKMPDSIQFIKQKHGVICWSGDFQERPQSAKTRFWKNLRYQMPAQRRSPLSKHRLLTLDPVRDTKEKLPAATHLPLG
Method: Pegylated IL-1ra was purified from the reaction mixture using hydrophobic exchange chromatography (Bio-Rad; HRLC MP7 HlC). A linear gradient with decreasing salt concentrations from 0.43 to 0.0M (NH4)2 SO4 in 50 mM sodium phosphate pH 7.0 in 20 minutes was used to separate pegylated IL-1ra and unmodified IL-1ra. Aliquots of fractions were evaluated by SDS-PAGE and pooled fractions were assayed in an IL-1 radioreceptor competition binding assay. [Kilian et al. J. Immunol., 136, 4509, (1986)]. Briefly, IL-1ra and PEG-IL-1ra were incubated at varying concentrations with EL-4 membranes for 30 min at 37° C. The [^125 I]IL-1 alpha was then added and the incubation continued for 30 min. The assay was terminated by vacuum filtration and the collection of cell bound [^125 I]IL-1 on filter plates. The concentration of IL-1ra or PEG-IL-1ra that inhibits binding of [^125l]IL- 1 by 50% (IC50) was determined graphically. […] The pegylated IL-1ra mixture retained its ability-to bind to the IL-1 receptor on EL-4 membranes within a factor 2 to 3 fold relative to the unmodified II1-1ra.

## IL-1ra: Interleukin-1 receptor antagonist, unmodified; apparent molecular weight 19 kD by SDS-PAGE
[1]; Example 12, within 6 hours of administration
  inhibition of the IL-1 response: less than 50%
[1]; Table D1 (reagent of Example 5), 200 ug s.c. 0 hr prior to 0.2 ug rIL-1 alpha, IL-1 alone 28852 U/ml
  IL-6: 772 Units/ml
[1]; Table D1 (reagent of Example 5), 200 ug s.c. 6 hr prior to 0.2 ug rIL-1 alpha, IL-1 alone 28852 U/ml
  IL-6: 8361 Units/ml
[1]; Table D1 (reagent of Example 5), 200 ug s.c. 24 hr prior to 0.2 ug rIL-1 alpha, IL-1 alone 28852 U/ml
  IL-6: 22525 Units/ml
[1]; Table D1 (reagent of Example 5), 200 ug s.c. 48 hr prior to 0.2 ug rIL-1 alpha, IL-1 alone 28852 U/ml
  IL-6: 18485 Units/ml
[1]; Table D1 (reagent of Example 5), 200 ug s.c. 72 hr prior to 0.2 ug rIL-1 alpha, IL-1 alone 28852 U/ml
  IL-6: 13220 Units/ml
[1]; Table D3 (reagent of Example 11), 0 hr prior to IL-1 administration, IL-1 alone 27283 u/ml
  IL-6: 4789 Units/ml
[1]; Table D3 (reagent of Example 11), 6 hr prior to IL-1 administration, IL-1 alone 27283 u/ml
  IL-6: 15324 Units/ml
[1]; Table D3 (reagent of Example 11), 24 hr prior to IL-1 administration, IL-1 alone 27283 u/ml
  IL-6: 24841 Units/ml
[1]; Table D3 (reagent of Example 11), 48 hr prior to IL-1 administration, IL-1 alone 27283 u/ml
  IL-6: 16348 Units/ml
[1]; Table D3 (reagent of Example 11), 72 hr prior to IL-1 administration, IL-1 alone 27283 u/ml
  IL-6: 12067 Units/ml
[1]; Table D6 (reagent of Example 18), 0 hr prior to 0.05 ug rIL-1 alpha, IL-1 alone 9203 units/ml
  IL-6: 521 Units/ml
[1]; Table D6 (reagent of Example 18), 6 hr prior to 0.05 ug rIL-1 alpha, IL-1 alone 9203 units/ml
  IL-6: 2334 Units/ml
[1]; Table D6 (reagent of Example 18), 24 hr prior to 0.05 ug rIL-1 alpha, IL-1 alone 9203 units/ml
  IL-6: 13486 Units/ml
[1]; Table D6 (reagent of Example 18), 48 hr prior to 0.05 ug rIL-1 alpha, IL-1 alone 9203 units/ml
  IL-6: 16577 Units/ml
[1]; Table D6 (reagent of Example 18), 72 hr prior to 0.05 ug rIL-1 alpha, IL-1 alone 9203 units/ml
  IL-6: 12800 Units/ml
[2]; 1 hr after administration
  Serum Concentration of IL-1ra: 400
  Serum Level of IL-1ra: 220 ng/mL
  Serum IL-1ra: 580 ng/mL
[2]; 2 hr after administration
  Serum Concentration of IL-1ra: 130
  Serum Level of IL-1ra: 33 ng/mL
  Serum IL-1ra: 75 ng/mL
[2]; 4 hr after administration
  Serum Concentration of IL-1ra: 15
  Serum Level of IL-1ra: 5.3 ng/mL
  Serum IL-1ra: 30 ng/mL
[2]; 6 hr after administration
  Serum Concentration of IL-1ra: 16
  Serum Level of IL-1ra: 1.5 ng/mL
  Serum IL-1ra: 8 ng/mL
[2]; time not given, line between 2 and 4 hr
  Serum Concentration of IL-1ra: 40
[2]; 3 hr after administration
  Serum Level of IL-1ra: 13 ng/mL
  Serum IL-1ra: 30 ng/mL
[3]; Example 6, Table VI: IL-1ra conjugated with reagent of Example 5, label = apparent molecular weight
  IC50: 2.0 ng/mL
[3]; Example 6A, Table VII: IL-1ra conjugated with reagent of Example 5a, label = apparent molecular weight (kD)
  IC50: 1.6 ng/mL
[3]; Example 12, Table XII: IL-1ra pegylated with reagent of Example 11, label = apparent molecular weight (kD)
  IC50: 2.0 ng/mL
[3]; Example 12A, Table XIII: IL-1ra pegylated with reagent of Example 11a, label = apparent molecular weight (kD)
  IC50: 0.8 ng/mL
[3]; Example 19, Table XIV: IL-1ra pegylated with reagent of Example 18, label = apparent molecular weight (kD)
  IC50: 2.0 ng/mL
[3]; Example 19A, Table XV: IL-1ra pegylated with reagent of Example 18a, label = apparent molecular weight (kD)
  IC50: 1.5 ng/mL
[3]; Example 26, Table XVIII: IL-1ra pegylated with reagent of Example 23, label = apparent molecular weight (kD)
  IC50: 2.0 ng/mL
[3]; Example 29, Table XX: IL-1ra pegylated with reagent of Example 28, label = molecular weight (kD)
  IC50: 1.4 ng/mL
[3]; Example 32, Table XXII: rIL-1ra conjugated with reagent of Example 31, label = apparent molecular weight (kD)
  IC50: 1.5 ng/mL
[3]; Example 38, Table XXV: rIL-1ra conjugated with the reagent described in Example 35 (so in the source), label = apparent molecular weight (kD)
  IC50: 1.0 ng/mL
[3]; IC50 of IL-1ra in this assay (general statement)
  IC50: 1 to 2.0 ng/mL
